Assay results: publication PMC6534540

Target: N-term biotinylated candidalysin (Candida albicans)
Assay: SPR; Biacore T100; N-term biotinylated candidalysin captured (up to 1000 RU) on neutravidin coupled to a CM5 chip, free sites blocked with PEG-biotin; EGFR domains injected at 250, 500, 1000 and 2000 nM at 10 µL/min; HBS-EP buffer (10 mM HEPES pH 7.4, 150 mM NaCl, 3 mM EDTA, 0.005% Surfactant P20); 25 °C; neutravidin-only reference cell

N-term biotinylated candidalysin (Candida albicans), sequence (Q07730 62-92): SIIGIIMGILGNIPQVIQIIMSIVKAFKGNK

EGFR transmembrane portion (domain or fragment)
SPR signal response: < 50 RU
